Source: PMC7677926

Biological target: L-ferritin-M6A (mouse L-ferritin with the Mms6 iron-binding segment M6A at its C-terminus behind a glycine spacer), with the N-terminal 6-His tag (mouse | Magnetospirillum magneticum AMB-1) (UniProt Q2W8R5)
Experiment: SEC; HiLoad 26/60 Superdex 200; 20 mM Bis-Tris pH 5.8, 500 mM KCl, 10% glycerol; oligomer judged by elution volume

## L-ferritin-M6A (mouse L-ferritin with the Mms6 iron-binding segment M6A at its C-terminus behind a glycine spacer), with the N-terminal 6-His tag (from UniProt Q2W8R5 116-127)
  stoichiometry N: 24
